In assay [1] the target is full length W2A-Pcad with an mCherry tag on the C-terminus (human). The experiment in a line: co-IP; lysates of A431 Pcad-mCherry cells grown 48 h without or with CQY684 Fab (200 nM); anti-mCherry rabbit mAb on magnetic protein G beads pulls down Pcad as bait; p120 detected by Western blot, p120/Pcad ratio normalised to WT -CQY; M2 lysis buffer pH 7.5, 50 mM Tris-HCl, 150 mM NaCl, 1% SDS, 1% Triton-X 100.

Assay [2] concerns the target full length WT-Pcad with an mCherry tag on the C-terminus (human) (UniProt P22223). The assay is described as above.

Chain of full length WT-Pcad with an mCherry tag on the C-terminus (human) (P22223 25-829): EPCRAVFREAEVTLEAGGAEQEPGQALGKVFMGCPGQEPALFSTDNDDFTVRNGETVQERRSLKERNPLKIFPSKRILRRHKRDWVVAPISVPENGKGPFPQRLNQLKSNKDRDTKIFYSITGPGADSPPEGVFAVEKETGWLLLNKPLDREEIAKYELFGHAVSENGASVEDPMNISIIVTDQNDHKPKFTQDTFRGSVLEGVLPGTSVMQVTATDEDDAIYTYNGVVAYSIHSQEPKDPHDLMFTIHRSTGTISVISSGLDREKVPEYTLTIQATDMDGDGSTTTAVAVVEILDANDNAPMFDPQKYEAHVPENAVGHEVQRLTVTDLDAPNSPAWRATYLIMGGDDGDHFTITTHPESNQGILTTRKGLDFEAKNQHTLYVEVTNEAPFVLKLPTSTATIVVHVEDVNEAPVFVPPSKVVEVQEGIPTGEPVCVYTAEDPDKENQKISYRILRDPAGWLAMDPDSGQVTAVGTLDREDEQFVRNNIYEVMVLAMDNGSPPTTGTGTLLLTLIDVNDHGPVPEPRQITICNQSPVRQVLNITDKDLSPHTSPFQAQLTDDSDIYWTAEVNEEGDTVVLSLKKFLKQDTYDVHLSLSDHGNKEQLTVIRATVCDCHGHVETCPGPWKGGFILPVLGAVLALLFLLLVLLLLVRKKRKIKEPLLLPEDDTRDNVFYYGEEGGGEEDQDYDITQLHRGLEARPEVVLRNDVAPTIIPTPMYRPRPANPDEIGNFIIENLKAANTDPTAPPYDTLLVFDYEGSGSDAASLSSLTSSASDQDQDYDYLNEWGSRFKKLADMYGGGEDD
Chain of full length W2A-Pcad with an mCherry tag on the C-terminus (human) (P22223 whole entry W109A): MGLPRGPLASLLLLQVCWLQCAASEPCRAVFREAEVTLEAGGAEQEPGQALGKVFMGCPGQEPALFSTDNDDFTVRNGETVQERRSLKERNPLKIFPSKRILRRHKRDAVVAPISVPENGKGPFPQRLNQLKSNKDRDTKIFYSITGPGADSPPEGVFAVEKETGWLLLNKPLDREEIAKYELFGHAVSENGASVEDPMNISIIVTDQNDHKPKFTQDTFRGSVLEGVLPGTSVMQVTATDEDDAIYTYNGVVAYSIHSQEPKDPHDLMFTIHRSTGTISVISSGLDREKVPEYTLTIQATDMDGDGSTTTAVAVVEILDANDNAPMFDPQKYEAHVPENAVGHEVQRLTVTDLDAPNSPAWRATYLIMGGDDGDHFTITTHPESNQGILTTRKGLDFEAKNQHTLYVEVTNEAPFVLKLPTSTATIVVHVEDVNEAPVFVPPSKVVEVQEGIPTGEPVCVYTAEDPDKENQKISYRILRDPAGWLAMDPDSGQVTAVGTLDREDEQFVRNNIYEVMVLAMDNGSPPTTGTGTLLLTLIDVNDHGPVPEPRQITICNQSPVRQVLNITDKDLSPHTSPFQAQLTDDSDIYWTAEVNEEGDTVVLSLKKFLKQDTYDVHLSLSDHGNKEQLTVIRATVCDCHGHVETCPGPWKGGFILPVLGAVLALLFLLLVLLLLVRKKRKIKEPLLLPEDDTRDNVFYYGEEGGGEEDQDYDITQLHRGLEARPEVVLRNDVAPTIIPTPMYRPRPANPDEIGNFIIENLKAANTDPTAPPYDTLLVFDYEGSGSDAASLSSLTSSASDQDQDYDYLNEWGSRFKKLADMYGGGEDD

B1: p120-catenin (natural protein)
chain: MDDSEVESTASILASVKEQEAQFEKLTRALEEERRHVSAQLERVRVSPQDANPLMANGTLTRRHQNGRFVGDADLERQKFSDLKLNGPQDHSHLLYSTIPRMQEPGQIVETYTEEDPEGAMSVVSVETSDDGTTRRTETTVKKVVKTVTTRTVQPVAMGPDGLPVDASSVSNNYIQTLGRDFRKNGNGGPGPYVGQAGTATLPRNFHYPPDGYSRHYEDGYPGGSDNYGSLSRVTRIEERYRPSMEGYRAPSRQDVYGPQPQVRVGGSSVDLHRFHPEPYGLEDDQRSMGYDDLDYGMMSDYGTARRTGTPSDPRRRLRSYEDMIGEEVPSDQYYWAPLAQHERGSLASLDSLRKGGPPPPNWRQPELPEVIAMLGFRLDAVKSNAAAYLQHLCYRNDKVKTDVRKLKGIPVLVGLLDHPKKEVHLGACGALKNISFGRDQDNKIAIKNCDGVPALVRLLRKARDMDLTEVITGTLWNLSSHDSIKMEIVDHALHALTDEVIIPHSGWEREPNEDCKPRHIEWESVLTNTAGCLRNVSSERSEARRKLRECDGLVDALIFIVQAEIGQKDSDSKLVENCVCLLRNLSYQVHREIPQAERYQEAAPNVANNTGPHAASCFGAKKGKDEWFSRGKKPIEDPANDTVDFPKRTSPARGYELLFQPEVVRIYISLLKESKTPAILEASAGAIQNLCAGRWTYGRYIRSALRQEKALSAIADLLTNEHERVVKAASGALRNLAVDARNKELIGKHAIPNLVKNLPGGQQNSSWNFSEDTVISILNTINEVIAENLEAAKKLRETQGIEKLVLINKSGNRSEKEVRAAALVLQTIWGYKELRKPLEKEGWKKSDFQVNLNNASRSQSSHSYDDSTLPLIDRNQKSDKKPDREEIQMSNMGSNTKSLDNNYSTPNERGDHNRTLDRSGDLGDMEPLKGTTPLMQDEGQESLEEELDVLVLDDEGGQVSYPSMQKI
As to B1, the p120 associated with Pcad, percent of the WT -CQY condition in assay [1] came out at 30%. For the same molecule, the p120 associated with Pcad in cells grown with CQY684 Fab, percent of the WT -CQY condition in assay [2] was 60%.

These data come from publication PMC11779849.
